From the supplement of paper PMC10899765 come the findings set out here.

Settings in all cases: 20 nM; 72 h
Data set [1] relates to MCF10A. Nature of the data set: percent viability (nuclei count relative to siNT); higher = more viable cells. The protocol: (§1)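 After 72 h, cells were fixed and stained with Hoechst and anti-fibrillarin, and nucleoli per nucleus were counted with CellProfiler. Values are plate-adjusted percent effect for the one-nucleolus and 5+ nucleoli phenotypes, normalised to siNT (0%) and to the positive controls siNOL11 or siKIF11 (100%), as the mean of biological triplicates. Percent viability is the nuclei count relative to siNT.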

Data set [2] relates to MCF10A. The data set can be described thus: 5+ nucleoli phenotype percent effect (relative to siNT 0% and siKIF11 100%); higher = more cells with five or more nucleoli. As for the experimental part: as §1
Data set [3] deals with MCF10A. The data set can be described thus: one-nucleolus phenotype percent effect (relative to siNT 0% and siNOL11 100%); higher = more cells with one nucleolus (ribosome biogenesis inhibition). The protocol: as §1

Take GAUAUUCAGAGGCUAGGUGG [hsa-miR-6074]: the percent viability in the data set on MCF10A [1] was found to be 34.5%. Besides, the “5+ nucleoli phenotype percent effect” value with MCF10A [2] was -1.31%. In the data set with MCF10A [3], the “one-nucleolus phenotype percent effect” value was -6.04%.
For UUGUACAUGGUAGGCUUUCAUU [hsa-miR-493-5p] the same measures were 81.7%, -9.79% and 3.68%.
For “AGUUUGGGAUGGAGAGAGGAGA [hsa-miR-6740-5p]”, in that order: 83.1%, 24.1% and -20.1%.
As to CUGGGAGGGGCUGGGUUUGGC [hsa-miR-6779-5p], the percent viability in the data set on MCF10A [1] turned out to be 36.8%. The “5+ nucleoli phenotype percent effect” value in the data set on MCF10A [2] was 2.1%. In the data set on MCF10A [3], the “one-nucleolus phenotype percent effect” value was determined as 10.8%.
For “GAACCCAUGAGGUUGAGGCUGCAGU [hsa-miR-1273d]”, in that order: 39.1%, -8.88% and 3.74%.
For “CUAUACAGUCUACUGUCUUUCC [hsa-let-7f-2-3p]”, the percent viability with MCF10A [1] is 70.8%. In addition, the “5+ nucleoli phenotype percent effect” value with MCF10A [2] turned out to be 4.65%. The “one-nucleolus phenotype percent effect” value in the data set with MCF10A [3] was -3.58%.
For AGGGUGUUUCUCUCAUCUCU [hsa-miR-609], in the data set with MCF10A [1], the percent viability is 74%. In the data set on MCF10A [2], the “5+ nucleoli phenotype percent effect” value amounted to 53.7%. In addition, the “one-nucleolus phenotype percent effect” value in the data set with MCF10A [3] was -18.6%.
For “UCCCAAGGGUGAGAUGCUGCCA [hsa-miR-6814-5p]” the same measures were 48.6%, -13.3% and 7.66%.
For “UGAGUGACAGGGGAAAUGGGGA [hsa-miR-1236-5p]” the same measures were 36.9%, -4.72% and -0.0652%.
For CUGCGCAAGCUACUGCCUUGCU [hsa-let-7i-3p] the same measures were 110%, 0.0505% and -4.21%.
As to UCAGGCAGUGUGGGUAUCAGAU [hsa-miR-4692], the percent viability with MCF10A [1] is 23.4%. For the same sequence, the “5+ nucleoli phenotype percent effect” value in the data set with MCF10A [2] was -11.4%. Besides, the “one-nucleolus phenotype percent effect” value with MCF10A [3] is 23.2%.
As for “UGAGAACUGAAUUCCAUAGGCU [hsa-miR-146b-5p]”, the percent viability in the data set on MCF10A [1] is 52.1%. Further, the “5+ nucleoli phenotype percent effect” value in the data set with MCF10A [2] is -25.8%. Moreover, the “one-nucleolus phenotype percent effect” value with MCF10A [3] is 0.774%.
For “UGUAAACAUCCUACACUCUCAGC [hsa-miR-30c-5p]” the same measures were 69.4%, 21.9% and 3.37%.
For GUGUCUGCUUCCUGUGGGA [hsa-miR-632] the same measures were 37%, -24.2% and 31.3%.
Take “CAGUGCAAUAGUAUUGUCAAAGC [hsa-miR-301a-3p]”: the percent viability with MCF10A [1] was 126%. Also, in the data set on MCF10A [2], the “5+ nucleoli phenotype percent effect” value came out at 43.8%. For the same sequence, the “one-nucleolus phenotype percent effect” value with MCF10A [3] was -17.2%.
As to CUUUCAGUCAGAUGUUUGCUGC [hsa-miR-30d-3p], in the data set with MCF10A [1], the percent viability came out at 131%. The “5+ nucleoli phenotype percent effect” value in the data set with MCF10A [2] was 59.2%. The “one-nucleolus phenotype percent effect” value with MCF10A [3] is -17.5%.
For UCUAAAGACUAGACUUCGCUAUG [hsa-miR-4744] the same measures were 106%, 32% and -22%.
Regarding “UGAGGGGCAGAGAGCGAGACUUU [hsa-miR-423-5p]”, the percent viability in the data set on MCF10A [1] amounted to 41.6%. In the data set with MCF10A [2], the “5+ nucleoli phenotype percent effect” value is -10.7%. Moreover, the “one-nucleolus phenotype percent effect” value in the data set with MCF10A [3] was 13.3%.
For “UCACCUGACCUCCCAUGCCUGU [hsa-miR-3622a-3p]”, in that order: 103%, 33.1% and -15.8%.
Regarding UAUACAAGGGCAGACUCUCUCU [hsa-miR-300], the percent viability in the data set with MCF10A [1] amounted to 68.9%. The “5+ nucleoli phenotype percent effect” value in the data set on MCF10A [2] was -6.47%. Besides, in the data set with MCF10A [3], the “one-nucleolus phenotype percent effect” value was -10.6%.
For “AAGUUGGCUGCAGUUAAGGUGG [hsa-miR-4715-5p]” the same measures were 22.1%, -13.4% and -2.6%.
For AUGGAGAUAGAUAUAGAAAU [hsa-miR-620] the same measures were 62.9%, -31.1% and 24%.
For GUUGGGGUGCAGGGGUCUGCU [hsa-miR-5572] the same measures were 19.7%, -19.8% and 43.3%.
For “ACUGGCAUGCUGCAUUUAUAUA [hsa-miR-4799-3p]”, the percent viability with MCF10A [1] came out at 66.3%. In addition, the “5+ nucleoli phenotype percent effect” value in the data set on MCF10A [2] amounted to 50.9%. Also, the “one-nucleolus phenotype percent effect” value in the data set with MCF10A [3] was -19.8%.
For “CCGGUCCCAGGAGAACCUGCAGA [hsa-miR-4746-5p]”, in that order: 45.1%, 8.72% and 11.9%.
For CUCCAGAGGGAAGUACUUUCU [hsa-miR-520a-5p] the same measures were 34.6%, -28.3% and 23.8%.
For CAACCUGGAGGACUCCAUGCUG [hsa-miR-490-3p] the same measures were 41.3%, 55.8% and -12.6%.
Regarding UUUCCUACCCUACCUGAAGACU [hsa-miR-3685], in the data set with MCF10A [1], the percent viability is 36.6%. Besides, the “5+ nucleoli phenotype percent effect” value with MCF10A [2] is -32.6%. For the same sequence, the “one-nucleolus phenotype percent effect” value in the data set with MCF10A [3] came out at 16.6%.
Regarding CAAAACGUGAGGCGCUGCUAU [hsa-miR-424-3p], in the data set on MCF10A [1], the percent viability was 74.1%. Moreover, the “5+ nucleoli phenotype percent effect” value in the data set on MCF10A [2] is -16.6%. For the same sequence, the “one-nucleolus phenotype percent effect” value in the data set on MCF10A [3] was -5.82%.
Turning to “UGCUCAGGUUGCACAGCUGGGA [hsa-miR-3934-3p]”, the percent viability with MCF10A [1] is 52.8%. Further, the “5+ nucleoli phenotype percent effect” value in the data set on MCF10A [2] was -20.7%. Further, in the data set on MCF10A [3], the “one-nucleolus phenotype percent effect” value turned out to be 9.77%.
For AUCAACAGACAUUAAUUGGGCGC [hsa-miR-421], in that order: 61.3%, -13.6% and 23.1%.
For “AUAGUGGGAAGCUGGCAGAUUC [hsa-miR-4727-3p]”, in the data set with MCF10A [1], the percent viability amounted to 16.6%. Further, the “5+ nucleoli phenotype percent effect” value in the data set on MCF10A [2] is -30.8%. The “one-nucleolus phenotype percent effect” value in the data set on MCF10A [3] is 52.3%.
For “GGGACCAUCCUGCCUGCUGUGG [hsa-miR-3619-3p]” the same measures were 44.4%, 20.9% and -10.4%.
For “UUGUUCUCAAACUGGCUGUCAGA [hsa-miR-7156-5p]”, in that order: 46.2%, 25.8% and -16.5%.
“GAGCCCCUCUCUGCUCUCCAG [hsa-miR-6769a-3p]”: in the data set with MCF10A [1], the percent viability was determined as 92.9%. Further, in the data set on MCF10A [2], the “5+ nucleoli phenotype percent effect” value worked out at 9.99%. Further, the “one-nucleolus phenotype percent effect” value in the data set with MCF10A [3] was -15.3%.
For CUAUUAAGGACAUUUGUGAUUC [hsa-miR-4477a] the same measures were 32.6%, -13.7% and -0.508%.
Consider CCGGUUCCAGUCCCUGGAG [hsa-miR-6070], for which the percent viability with MCF10A [1] was 55.6%. The “5+ nucleoli phenotype percent effect” value in the data set with MCF10A [2] is -6.27%. Also, in the data set with MCF10A [3], the “one-nucleolus phenotype percent effect” value is 16.9%.
For UGGAUUUUUGGAUCAGGGA [hsa-miR-1290] the same measures were 51%, -26.7% and 7%.
Consider AAGUGCUUCCUUUUAGAGGGUU [hsa-miR-520f], for which the percent viability in the data set with MCF10A [1] was 46.9%. Besides, the “5+ nucleoli phenotype percent effect” value in the data set on MCF10A [2] was determined as 26.9%. Moreover, in the data set on MCF10A [3], the “one-nucleolus phenotype percent effect” value was determined as 4.79%.
Regarding UGCUUCCUUUCAGAGGGU [hsa-miR-516a-3p], the percent viability in the data set on MCF10A [1] was 100%. Further, in the data set on MCF10A [2], the “5+ nucleoli phenotype percent effect” value is -23%. In addition, the “one-nucleolus phenotype percent effect” value in the data set with MCF10A [3] was -10.2%.
For “CACAUAUGAAGUGAGCCAGCAC [hsa-miR-5580-3p]”, in that order: 56.3%, -31.6% and -6.62%.
For CUGUACAACCUUCUAGCUUUCC [hsa-let-7c-3p] the same measures were 74.2%, -7.45% and -4.89%.
In the case of UUUGUGACCUGGUCCACUAACC [hsa-miR-758-3p], the percent viability in the data set with MCF10A [1] was 52.5%. Moreover, the “5+ nucleoli phenotype percent effect” value in the data set on MCF10A [2] was -42%. Also, the “one-nucleolus phenotype percent effect” value in the data set with MCF10A [3] is 35.1%.
In the case of “AAAAGUAAUUGCGGUUUUUGC [hsa-miR-548au-5p]”, in the data set with MCF10A [1], the percent viability stood at 100%. In the data set on MCF10A [2], the “5+ nucleoli phenotype percent effect” value turned out to be 42.7%. For the same sequence, the “one-nucleolus phenotype percent effect” value in the data set on MCF10A [3] was -19.4%.
For the sequence ACUGAUUUCUUUUGGUGUUCAG [hsa-miR-29a-5p], in the data set with MCF10A [1], the percent viability came to 134%. In addition, in the data set on MCF10A [2], the “5+ nucleoli phenotype percent effect” value was found to be 23.5%. The “one-nucleolus phenotype percent effect” value in the data set with MCF10A [3] is -23.9%.
For AAGUCCCACUAAUGCCAGC [hsa-miR-5588-3p], in that order: 42.5%, -3.98% and 6.67%.
Regarding “CAUCUUACUGGGCAGCAUUGGA [hsa-miR-200b-5p]”, the percent viability with MCF10A [1] came out at 73.7%. The “5+ nucleoli phenotype percent effect” value in the data set on MCF10A [2] was found to be 0.989%. Also, in the data set on MCF10A [3], the “one-nucleolus phenotype percent effect” value is -11.1%.
For “UGAGGCCCUUGGGGCACAGUGG [hsa-miR-5008-5p]” the same measures were 22.9%, -8.69% and 6.37%.
